Test results: article doi:10.1101/2020.09.15.299115

How the values were obtained:
[1] = molecular target: mCherry-FKBP-Ubc9 (UniProt P63279)
[2] = molecular target: mCherry-FKBP-Ubc9 (UniProt P63279); assay: partitioning into condensates

Molecule	KM of SUMOylation of RanGAP* (no scaffolds) [1] [µM]	fold concentration in droplets [2] [fold]
FKBP-EGFP-RanGAP* (RanGAP C-terminal domain 398-587, F562A) (from UniProt P46060 398-587) (domain or fragment)	70	
E1-EGFP (SAE1/2 heterodimer) (complex) chain 1: MVEKEEAGGGISEEEAAQYDRQIRLWGLEAQKRLRASRVLLVGLKGLGAEIAKNLILAGVKGLTMLDHEQVTPEDPGAQFLIRTGSVGRNRAEASLERAQNLNPMVDVKVDTEDIEKKPESFFTQFDAVCLTCCSRDVIVKVDQICHKNSIKFFTGDVFGYHGYTFANLGEHEFVEEKTKVAKVSQGVEDGPDTKRAKLDSSETTMVKKKVVFCPVKEALEVDWSSEKAKAALKRTTSDYFLLQVLLKFRTDKGRDPSSDTYEEDSELLLQIRNDVLDSLGISPDLLPEDFVRYCFSEMAPVCAVVGGILAQEIVKALSQRDPPHNNFFFFDGMKGNGIVECLGPK chain 2: MALSRGLPRELAEAVAGGRVLVVGAGGIGCELLKNLVLTGFSHIDLIDLDTIDVSNLNRQFLFQKKHVGRSKAQVAKESVLQFYPKANIVAYHDSIMNPDYNVEFFRQFILVMNALDNRAARNHVNRMCLAADVPLIESGTAGYLGQVTTIKKGVTECYECHPKPTQRTFPGCTIRNTPSEPIHCIVWAKYLFNQLFGEEDADQEVSPDRADPEAAWEPTEAEARARASNEDGDIKRISTKEWAKSTGYDPVKLFTKLFKDDIRYLLTMDKLWRKRKPPVPLDWAEVQSQGEETNASDQQNEPQLGLKDQQVLDVKSYARLFSKSIETLRVHLAEKGDGAELIWDKDDPSAMDFVTSAANLRMHIFSMNMKSRFDIKSMAGNIIPAIATTNAVIAGLIVLEGLKILSGKIDQCRTIFLNKQPNPRKKLLVPCALDPPNPNCYVCASKPEVTVRLNVHKVTVLTLQDKIVKEKFAMVAPDVQIEDGKGTILISSEEGETEANNHKKLSEFGIRNGSRLQADDFLQDYTLLINILHSEDLGKDVEFEVVGDAPEKVGPKQAEDAAKSITNGSDDGAQPSTSTAQEQDDVLIVDSDEEDSSNNADVSEEERSRKRKLDEKENLSAKRSRIEQKEELDDVIALD		1.9
